The results in this text go back to paper PMC8914392, “Biochemical and structural characterizations of thioredoxin reductase selenoproteins of the parasitic filarial nematodes Brugia malayi and Onchocerca volvulus” (Redox Biology, 2022).

As usually defined, the IC50 is the concentration needed to halve the response being measured. As a reminder, the Km is the concentration of substrate that gives half-maximal velocity. By kcat is commonly meant the number of substrate molecules converted per active site and unit of time at saturation. Usually kcat/Km stands for the second-order rate constant that governs catalysis at low substrate concentration.

Data set [1] has as its target thioredoxin reductase from Brugia malayi, isoform D (Brugia malayi).
Data set [2] deals with thioredoxin reductase from Onchocerca volvulus, isoform D (Onchocerca volvulus).
Data set [3] deals with T1, OvTrxR (isoform D).
T1 construct: gene TrxR; pABC2a, N-terminal His-SUMO tag removed; E. coli C321.deltaA; Sec enriched; homodimer
Briefly: DTNB reduction, A412, dose-response fit. Type of data set: biochemical, Onchocerca volvulus. The following applies: 25 nM enzyme, 30 min preincubation with 0.25 mM NADPH and 0.1 mg/ml BSA, 1 mM DTNB, pH 7.5; for IC50: read-out: Apparent IC50 (μM) ^a. The text has this: DTNB reduction, A412, dose-response fit on OvTrxR (isoform D)

Data set [4] addresses T2, BmTrxR (isoform D) (Brugia malayi, UniProt A0A1I9G0T9).
T2 construct: gene bma-trxr-1; full-length isoform D, 598 residues, Grx-like domain 1-102 and TrxR domain 103-598, Sec at 597; pABC2a, N-terminal His-SUMO tag removed; E. coli C321.deltaA; homodimer
T2 sequence (A0A1I9G0T9 116-713): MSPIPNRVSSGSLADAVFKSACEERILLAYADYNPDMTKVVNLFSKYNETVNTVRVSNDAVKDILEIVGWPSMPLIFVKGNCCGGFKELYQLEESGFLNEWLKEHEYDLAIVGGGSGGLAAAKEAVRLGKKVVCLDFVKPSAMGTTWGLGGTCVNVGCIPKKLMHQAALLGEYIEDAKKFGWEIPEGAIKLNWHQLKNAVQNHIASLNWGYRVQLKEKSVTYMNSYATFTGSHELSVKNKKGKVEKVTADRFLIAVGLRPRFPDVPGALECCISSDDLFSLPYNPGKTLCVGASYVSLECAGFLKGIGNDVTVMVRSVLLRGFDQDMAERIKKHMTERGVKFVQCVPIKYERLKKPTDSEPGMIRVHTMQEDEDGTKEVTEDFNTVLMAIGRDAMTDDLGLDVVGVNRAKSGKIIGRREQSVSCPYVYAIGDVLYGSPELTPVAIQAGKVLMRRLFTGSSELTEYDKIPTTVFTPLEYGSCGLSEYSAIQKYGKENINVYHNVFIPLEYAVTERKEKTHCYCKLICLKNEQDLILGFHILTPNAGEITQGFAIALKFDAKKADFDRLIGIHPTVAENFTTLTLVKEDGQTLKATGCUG
Briefly: DTNB reduction, A412, dose-response fit. The format is biochemical. The settings on record: for IC50: read-out: Apparent IC50 (μM) ^a. The text has this: DTNB reduction, A412, dose-response fit on BmTrxR (isoform D)

Data set [5] has as its target T2, BmTrxR (isoform D). As to the kind of experiment: ThermoFAD. The following applies: 1 mM NADPH; Tm without NADPH 64.5 °C. Type of data set: binding.
In data set [6] the test system is T1, OvTrxR (isoform D). As to the kind of experiment: TNB formation at A412. Type of data set: biochemical, Onchocerca volvulus. The settings on record: 250 μM NADPH, 10 nM enzyme, pH 7.5. The text has this: TNB formation at A412 on OvTrxR (isoform D)
The target of a further data set is T3, hTrxR1 (Homo sapiens, UniProt Q16881).
T3 construct: gene TXNRD1; recombinant selenoprotein, GCUG C-terminus, cytosolic form; homodimer
T3 sequence (Q16881 151-649): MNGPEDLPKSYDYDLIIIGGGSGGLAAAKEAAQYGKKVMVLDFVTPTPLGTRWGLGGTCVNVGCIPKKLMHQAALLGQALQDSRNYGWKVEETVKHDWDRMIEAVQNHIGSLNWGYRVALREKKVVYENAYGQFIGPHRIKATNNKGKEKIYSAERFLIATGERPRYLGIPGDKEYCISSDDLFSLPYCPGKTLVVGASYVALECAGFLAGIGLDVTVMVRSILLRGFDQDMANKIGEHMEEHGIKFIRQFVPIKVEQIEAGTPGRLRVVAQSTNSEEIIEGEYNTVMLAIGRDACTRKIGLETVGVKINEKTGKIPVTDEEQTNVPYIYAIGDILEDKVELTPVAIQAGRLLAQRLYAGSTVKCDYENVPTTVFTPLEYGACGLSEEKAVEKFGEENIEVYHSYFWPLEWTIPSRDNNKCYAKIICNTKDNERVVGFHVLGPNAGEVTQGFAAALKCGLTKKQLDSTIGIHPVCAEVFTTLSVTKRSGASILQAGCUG
Briefly: TNB formation at A412. Type of data set: biochemical. The settings on record: NADPH, pH 7.5. The text has this: TNB formation at A412 on hTrxR1

Substrate in the data set “purified protein”: O=C(O)c1cc(SSc2ccc([N+](=O)[O-])c(C(=O)O)c2)ccc1[N+](=O)[O-]
Briefly: purified protein. The settings on record: 250 μM NADPH, 20 nM enzyme, pH 7.5.

Like-named read-outs stand apart in the source and are kept apart here.

For “Brugia malayi thioredoxin 1 (natural protein)”, the Km of the reductase for the Trx, Trx-linked insulin disulfide reduction assay (NADPH consumption at A340) in data set [1] stood at 2.7 µM; in data set [2], 2.4 µM.

Turning to “Onchocerca volvulus thioredoxin 1 (natural protein)”, the Km of the reductase for the Trx, Trx-linked insulin disulfide reduction assay (NADPH consumption at A340) in data set [1] was 1.1 µM; in data set [2], 1.6 µM.

On to auranofin, for which the IC50 with OvTrxR (isoform D) [3] (covalent) amounted to 0.0032 µM; at BmTrxR (isoform D) [4] (25 nM enzyme, 30 min preincubation with 0.25 mM NADPH and 0.1 mg/ml BSA, 1 mM DTNB, pH 7.5, covalent), 0.0024 µM.

Take `COc1ccc([N+](=O)[O-])c(S(=O)(=O)c2ccc(Cl)cc2)n1` [TRi-1]: the IC50 in the data set on OvTrxR (isoform D) [3] is 0.012 µM; at BmTrxR (isoform D) [4], 0.013 µM.

Turning to NADPH, the Tm on BmTrxR (isoform D) [5] came out at 48.3 ± 0.6 °C.

“Brugia malayi thioredoxin 2 (natural protein)”: in data set [1], the Km of the reductase for the Trx, Trx-linked insulin disulfide reduction assay (NADPH consumption at A340) worked out at 4.7 µM.

Consider “Onchocerca volvulus thioredoxin 2 (natural protein)”, for which the Km of the reductase for the Trx, Trx-linked insulin disulfide reduction assay (NADPH consumption at A340) was determined as 9.6 µM in data set [1] and 4.5 µM in data set [2].

With TRi-2, the “Apparent IC50 (μM) ^a” value in the data set on OvTrxR (isoform D) [3] (unreliable (above the printed inhibitor range 1 nM-1 μM)) amounted to 1.5 µM; at BmTrxR (isoform D) [4] (25 nM enzyme, 30 min preincubation with 0.25 mM NADPH and 0.1 mg/ml BSA, 1 mM DTNB, pH 7.5, unreliable (above the printed inhibitor range 1 nM-1 μM)), 1.8 µM.

In the case of `O=C(O)c1cc(SSc2ccc([N+](=O)[O-])c(C(=O)O)c2)ccc1[N+](=O)[O-]` [DTNB, 5,5′-dithiobis-(2-nitrobenzoic acid)], the Km in the data set with OvTrxR (isoform D) [6] stood at 170 ± 12 µM; on hTrxR1, 61 ± 8.4 µM.

B1: BmTrxR (isoform D) (Brugia malayi) (protein)
chain: T2 sequence (A0A1I9G0T9 116-713)
Regarding B1, in “purified protein”, the Michaelis constant (Km) was determined as 70 ± 7.8 µM, the turnover number (kcat) was found to be 20 ± 0.95 s⁻¹ and the kcat/Km turned out to be 283000 M⁻¹ s⁻¹.
